Laboratory results as given in publication PMC4510971.

How the values were obtained:
Test in all cases: ITC; 0.450 mM UBN1 injected into a cell with 30 μM H3/H4, 22 °C; 20 mM HEPES pH 7.5, 750 mM NaCl, 1 mM TCEP
[1] = biological target: Asf1(1–169)/H3.3(60–135)/H4(20–102) (S. cerevisiae | X. laevis) (UniProt P32447)
[2] = biological target: H3.3(G90M)/H4 (human | X. laevis) (UniProt P62799)
[3] = biological target: H3.3(SAVM)/H4 (human | X. laevis) (UniProt P84243)

UBN1(122–148) peptide, sequence (Q9NPG3 122-148): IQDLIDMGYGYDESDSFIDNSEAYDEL

Kd [1]: 110 µM
fold decrease in binding relative to H3.3 WT [2]: 3 fold
fold decrease in binding relative to H3.3 WT [3]: 3 fold
Substance: UBN1(122–148) peptide (from UniProt Q9NPG3 122-148)
